Tests used:
K. pneumoniae [1] = assay: Lethal bacteremia model (K. pneumoniae 5×10^3 CFU/mouse), survival; format: in vivo, Male FVB mice; details: single i.v. dose 10 mg/kg; K. pneumoniae 5×10^3 CFU
Description: (§1) Male FVB mice (8-10 weeks old) were used to model sepsis in vivo. The Institutional Animal Care and Use Committee of the National Cheng Kung University approved procedures. In the chronic endotoxemia model, various concentrations of rTMD1 or rTMD proteins in equi-molar amounts were administrated by tail intravenous (i.v.) injection and LPS (20 mg/kg) or K. pneumoniae (5×10^2 CFU/mouse, BCRC) was administrated by intraperitoneal (i.p.) injection. After 6 or 12 hours, mice were sacrificed by pentobarbital anesthesia (50 mg/kg; i.p.). […] The half-life of rTMD1 in the circulation was determined by i.v. injection of rTMD1 (10 mg/kg, equals 436.64 nmole/kg) and serum samples were collected at various time intervals. The levels of rTMD1 in the collected sera were determined by a sandwich ELISA which employed anti-c-Myc monoclonal antibody and TM-H300 as capture and detection antibodies (both from Santa Cruz Biotechnology), respectively. […] Mortality was monitored every 6-12 hours until all mice in either experimental group died. […] Serum samples were collected at various time intervals and the amount of LPS was determined by Limulus amebocyte lysate test (Associates of Cape Cod, E. Falmouth, Mass.). […] Outgrowth of K. pneumoniae was quantified by plating serial dilutions of blood samples on blood agar plates and enumerating colonies after overnight incubation at 37° C.

[2] = Lethal sepsis model (LPS 40 mg/kg i.p.), survival; format: in vivo, Male FVB mice; details: four i.v. doses of 2 mg/kg
Description: as §1

K. pneumoniae [3] = assay: K. pneumoniae (5×10^2 CFU/mouse) systemic sepsis model in mice; format: in vivo, Male FVB mice
Description: TNF-α in conditioned medium or mouse serum was measured by an enzyme-linked immunosorbent assay (ELISA) (R&D Systems, Minneapolis, Minn.). Accumulation of nitrite in the medium or mouse serum was determined by a colorimetric assay using Griess reagent (Sigma-Aldrich). Blood urea nitrogen (BUN) and creatinine were measured with a Roche D&P modular (Roche Diagnostic Systems, Branchburg, N.J.). Assays were performed according to the manufacturer's protocol.
Male FVB mice (8-10 weeks old) were used to model sepsis in vivo. The Institutional Animal Care and Use Committee of the National Cheng Kung University approved procedures. In the chronic endotoxemia model, various concentrations of rTMD1 or rTMD proteins in equi-molar amounts were administrated by tail intravenous (i.v.) injection and LPS (20 mg/kg) or K. pneumoniae (5×10^2 CFU/mouse, BCRC) was administrated by intraperitoneal (i.p.) injection. After 6 or 12 hours, mice were sacrificed by pentobarbital anesthesia (50 mg/kg; i.p.). Sera were collected and assayed for TNF-α, NO, BUN, and creatinine, and lung and kidney tissues were removed, fixed with formalin, and embedded in paraffin for histochemical examination. In the lethal sepsis model, rTMD1 (2 mg/kg, equals 87.3 nmole/kg) was i.v.-administrated at 0, 6, 12, and 24 hours after i.p. administration of LPS (40 mg/kg). The half-life of rTMD1 in the circulation was determined by i.v. injection of rTMD1 (10 mg/kg, equals 436.64 nmole/kg) and serum samples were collected at various time intervals. The levels of rTMD1 in the collected sera were determined by a sandwich ELISA which employed anti-c-Myc monoclonal antibody and TM-H300 as capture and detection antibodies (both from Santa Cruz Biotechnology), respectively. […] Mortality was monitored every 6-12 hours until all mice in either experimental group died. Experimental procedure of determining LPS half-life is as following. LPS (20 mg/kg) was i.p.-administrated to male FVB mice without or with rTMD1 (10 mg/kg; i.v.). Serum samples were collected at various time intervals and the amount of LPS was determined by Limulus amebocyte lysate test (Associates of Cape Cod, E. Falmouth, Mass.). A further experiment was performed to determine whether rTMD1 affects bacterial clearance. K. pneumoniae (5×10^2 CFU/mouse) was i.p.-administrated to male FVB mice without or with rTMD1 (10 mg/kg; i.v.), and blood samples were collected at various time intervals. Outgrowth of K. pneumoniae was quantified by plating serial dilutions of blood samples on blood agar plates and enumerating colonies after overnight incubation at 37° C.

[4] = target: T1, binding of LPS binding protein to LPS (Homo sapiens, UniProt P18428); assay: Binding of LPS binding protein to LPS; details: data not shown
T1 sequence (P18428 26-481): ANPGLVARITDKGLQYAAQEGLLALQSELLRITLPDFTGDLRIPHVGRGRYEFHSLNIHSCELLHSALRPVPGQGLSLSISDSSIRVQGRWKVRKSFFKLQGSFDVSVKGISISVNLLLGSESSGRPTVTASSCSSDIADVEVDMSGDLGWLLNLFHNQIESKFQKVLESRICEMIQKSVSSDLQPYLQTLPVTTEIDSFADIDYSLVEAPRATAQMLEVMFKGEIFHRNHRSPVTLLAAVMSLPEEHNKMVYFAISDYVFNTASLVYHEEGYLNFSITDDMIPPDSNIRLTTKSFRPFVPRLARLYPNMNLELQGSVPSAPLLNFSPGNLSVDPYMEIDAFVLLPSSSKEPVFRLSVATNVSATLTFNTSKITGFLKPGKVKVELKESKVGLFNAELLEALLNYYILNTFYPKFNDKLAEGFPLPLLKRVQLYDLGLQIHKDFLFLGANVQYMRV

[5] = rTMD1 5-25 mg/kg i.v., 12 hours, 5×10^2 CFU

B1: rTMD1: recombinant human thrombomodulin N-terminal lectin-like domain (residues Ala1-Ala155) with 6×His tag and c-Myc epitope, Pichia pastoris expressed (protein)
chain: EFAPAEPQPGGSQCVEHDCFALYPGPATFLNASQICDGLRGHLMTVRSSVAADVISLLLNGDGGVGRRRLWIGLQLPPGCGDPKRLGPLRGFQWVTGDNNTSYSRWARLDLNGAPLCGPLCVAVSAAEATVPSEPIWEEQQCEVKADGFLCEFHFPAYLEDDDDKIEQKLISEEDLNSAVDHHHHHH
modifications: left off: small tags and cut ends
With B1 the “mice surviving more than 24 hours” value (K. pneumoniae [1]) was 50%, the survival ([2]; 1 day after LPS challenge) was 100% and the survival ([2]; 4 days after LPS challenge) was 60%. For the same molecule, the “survival, post-treatment” value (K. pneumoniae [3]; all rTMD1-treated groups vs infected mice without rTMD1) was “improved”, the “K. pneumoniae-induced TNF-α release, post-treatment” value (K. pneumoniae [3]; rTMD1 10 mg/kg i.v. immediately, 30 or 60 minutes after K. pneumoniae) was “effectively suppress” and the “NO production in K. pneumoniae-infected mice” value (K. pneumoniae [3]; [5]) was “effectively reduced”. For the same molecule, the “TNF-α production in K. pneumoniae-infected mice” value (K. pneumoniae [3]; [5]) was “effectively reduced” and the “binding of LPS binding protein to LPS” value [4] was “not inhibited”.
